Data as given in PMC3322289.
Read-outs that look alike come from different tables or passages of the source.

Key:
Angiotensin II, P01019 [1] = assay: radioligand
Angiotensin II, P01019 [2] = assay: radioligand; remark: listed apart in the source

Angiotensin II, P01019, sequence (P01019 whole entry, looked up): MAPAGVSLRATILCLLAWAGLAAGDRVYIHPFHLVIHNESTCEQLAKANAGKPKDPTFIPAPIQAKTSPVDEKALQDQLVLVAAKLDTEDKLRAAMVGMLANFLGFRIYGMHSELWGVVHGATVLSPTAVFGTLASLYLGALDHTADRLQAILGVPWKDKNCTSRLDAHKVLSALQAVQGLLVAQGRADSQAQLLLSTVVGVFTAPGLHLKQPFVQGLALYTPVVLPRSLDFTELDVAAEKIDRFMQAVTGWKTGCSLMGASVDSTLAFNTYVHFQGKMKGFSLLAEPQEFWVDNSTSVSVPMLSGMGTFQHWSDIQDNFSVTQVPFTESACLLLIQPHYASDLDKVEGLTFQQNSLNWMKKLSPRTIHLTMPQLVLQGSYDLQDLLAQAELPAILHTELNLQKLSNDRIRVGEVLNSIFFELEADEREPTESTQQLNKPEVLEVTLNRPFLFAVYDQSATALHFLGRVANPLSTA

Kd (Angiotensin II, P01019 [1]): 3.57 nM | Kd (Angiotensin II, P01019 [2]): 3.32 nM
B1: Angiotensin II type 1 receptor (AT1R), P25095 (protein)
chain: MALNSSAEDGIKRIQDDCPKAGRHSYIFVMIPTLYSIIFVVGIFGNSLVVIVIYFYMKLKTVASVFLLNLALADLCFLLTLPLWAVYTAMEYRWPFGNHLCKIASASVSFNLYASVFLLTCLSIDRYLAIVHPMKSRLRRTMLVAKVTCIIIWLMAGLASLPAVIHRNVYFIENTNITVCAFHYESRNSTLPIGLGLTKNILGFLFPFLIILTSYTLIWKALKKAYEIQKNKPRNDDIFRIIMAIVLFFFFSWVPHQIFTFLDVLIQLGVIHDCKISDIVDTAMPITICIAYFNNCLNPLFYGFLGKKFKKYFLQLLKYIPPKAKSHSSLSTKMSTLSYRPSDNMSSSAKKPASCFEVE
